To fix the notation:
B2: Phospholipase C-γ1 (PLC-γ1), 1–1219 (enzyme, UniProt P19174 1-1219, looked up)
chain: MAGAASPCANGCGPGAPSDAEVLHLCRSLEVGTVMTLFYSKKSQRPERKTFQVKLETRQITWSRGADKIEGAIDIREIKEIRPGKTSRDFDRYQEDPAFRPDQSHCFVILYGMEFRLKTLSLQATSEDEVNMWIKGLTWLMEDTLQAPTPLQIERWLRKQFYSVDRNREDRISAKDLKNMLSQVNYRVPNMRFLRERLTDLEQRSGDITYGQFAQLYRSLMYSAQKTMDLPFLEASTLRAGERPELCRVSLPEFQQFLLDYQGELWAVDRLQVQEFMLSFLRDPLREIEEPYFFLDEFVTFLFSKENSVWNSQLDAVCPDTMNNPLSHYWISSSHNTYLTGDQFSSESSLEAYARCLRMGCRCIELDCWDGPDGMPVIYHGHTLTTKIKFSDVLHTIKEHAFVASEYPVILSIEDHCSIAQQRNMAQYFKKVLGDTLLTKPVEISADGLPSPNQLKRKILIKHKKLAEGSAYEEVPTSMMYSENDISNSIKNGILYLEDPVNHEWYPHYFVLTSSKIYYSEETSSDQGNEDEEEPKEVSSSTELHSNEKWFHGKLGAGRDGRHIAERLLTEYCIETGAPDGSFLVRESETFVGDYTLSFWRNGKVQHCRIHSRQDAGTPKFFLTDNLVFDSLYDLITHYQQVPLRCNEFEMRLSEPVPQTNAHESKEWYHASLTRAQAEHMLMRVPRDGAFLVRKRNEPNSYAISFRAEGKIKHCRVQQEGQTVMLGNSEFDSLVDLISYYEKHPLYRKMKLRYPINEEALEKIGTAEPDYGALYEGRNPGFYVEANPMPTFKCAVKALFDYKAQREDELTFIKSAIIQNVEKQEGGWWRGDYGGKKQLWFPSNYVEEMVNPVALEPEREHLDENSPLGDLLRGVLDVPACQIAIRPEGKNNRLFVFSISMASVAHWSLDVAADSQEELQDWVKKIREVAQTADARLTEGKIMERRKKIALELSELVVYCRPVPFDEEKIGTERACYRDMSSFPETKAEKYVNKAKGKKFLQYNRLQLSRIYPKGQRLDSSNYDPLPMWICGSQLVALNFQTPDKPMQMNQALFMTGRHCGYVLQPSTMRDEAFDPFDKSSLRGLEPCAISIEVLGARHLPKNGRGIVCPFVEIEVAGAEYDSTKQKTEFVVDNGLNPVWPAKPFHFQISNPEFAFLRFVVYEEDMFSDQNFLAQATFPVKGLKTGYRAVPLKNNYSEDLELASLLIKIDIFPAKENGD

Assay [1] has as its target LAT 125-178 (Homo sapiens) (UniProt O43561). Nature of the assay: ITC. The settings on record: cited from earlier work.
Assay [2] addresses LAT 161-180 (Homo sapiens) (UniProt O43561). Nature of the assay: ITC. Particulars: cited from earlier work.
In assay [3] the target is SLP-76 157-420 (Homo sapiens) (UniProt Q13094). Nature of the assay: ITC. The settings on record: cited from earlier work.
Sequence of SLP-76 157-420 (Homo sapiens) (Q13094 157-420): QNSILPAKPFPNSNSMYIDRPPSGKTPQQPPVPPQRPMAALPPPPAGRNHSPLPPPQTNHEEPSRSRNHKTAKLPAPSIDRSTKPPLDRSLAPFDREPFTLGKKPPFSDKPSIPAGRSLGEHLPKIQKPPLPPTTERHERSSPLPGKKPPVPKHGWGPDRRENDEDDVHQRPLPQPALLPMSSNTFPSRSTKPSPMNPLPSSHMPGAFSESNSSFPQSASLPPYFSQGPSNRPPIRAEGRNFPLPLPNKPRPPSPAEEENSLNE
Assay [4] has as its target SLP-76 159-533 (Homo sapiens) (UniProt Q13094). The assay is described as follows: ITC. The settings on record: cited from earlier work.
The target of assay [5] is LAT 122-140 (Homo sapiens) (UniProt O43561). The assay is described as follows: ITC. Particulars: cited from earlier work.
In a further assay the target is SLP-76 (Homo sapiens) (UniProt Q13094). The assay is described as follows: ITC. Particulars: cited from earlier work.
Sequence of SLP-76 (Homo sapiens) (Q13094 whole entry): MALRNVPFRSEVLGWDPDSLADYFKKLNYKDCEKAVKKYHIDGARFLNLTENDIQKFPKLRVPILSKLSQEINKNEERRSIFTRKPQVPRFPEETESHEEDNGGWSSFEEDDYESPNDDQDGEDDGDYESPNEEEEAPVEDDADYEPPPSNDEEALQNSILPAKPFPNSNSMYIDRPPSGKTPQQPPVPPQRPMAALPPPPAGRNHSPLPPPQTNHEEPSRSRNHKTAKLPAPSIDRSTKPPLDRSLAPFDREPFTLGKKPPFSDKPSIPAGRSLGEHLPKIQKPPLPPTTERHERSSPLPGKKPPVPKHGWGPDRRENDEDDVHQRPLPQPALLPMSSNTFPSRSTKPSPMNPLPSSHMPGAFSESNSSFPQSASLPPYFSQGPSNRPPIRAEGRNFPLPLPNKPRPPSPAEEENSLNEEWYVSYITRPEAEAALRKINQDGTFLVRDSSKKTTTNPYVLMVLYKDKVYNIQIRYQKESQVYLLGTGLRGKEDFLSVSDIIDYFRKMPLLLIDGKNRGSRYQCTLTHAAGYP
In assay [6] the target is B2. The assay is described as follows: cell-based or functional assay.
The target in assay [7] is B2. The assay is described as follows: ITC; VP-ITC or PEAQ-ITC; 20 mM Hepes pH 7.4, 100 mM NaCl, 0.1 mM DTT, 5 °C; 4 µM in the cell, 40 µM in the syringe; fit to a single binding site with 1:1 stoichiometry. Particulars: both partners purified. On the technique in general: Isothermal titration calorimetry measures the heat released or taken up as one component is titrated into another.

Assay [8] has as its target T1, phosphorylated LAT (48–233aa, pY132, pY171) (UniProt O43561-2 48-233, phosphotyrosine at 132 and 171 (in vitro phosphorylation, validated by mass spectrometry)).
T1 sequence (looked up): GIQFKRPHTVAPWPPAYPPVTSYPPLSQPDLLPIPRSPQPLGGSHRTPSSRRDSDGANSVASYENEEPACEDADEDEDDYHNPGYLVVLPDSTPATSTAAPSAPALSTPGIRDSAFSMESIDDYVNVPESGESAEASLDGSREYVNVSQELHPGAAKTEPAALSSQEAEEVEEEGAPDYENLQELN
Nature of the assay: cell-based or functional assay.

The next assay addresses T2, PLC-γ1 (1-1219) (UniProt P19174 1-1219).
T2 construct: the text calls it full length PLC-γ1; this is the only PLC-γ1 that the methods describe; also called Phospholipase C-γ1; PLC-g1; source: Sf9, purified (HaloLink Resin, TEV cleavage, SEC)
T2 sequence (looked up): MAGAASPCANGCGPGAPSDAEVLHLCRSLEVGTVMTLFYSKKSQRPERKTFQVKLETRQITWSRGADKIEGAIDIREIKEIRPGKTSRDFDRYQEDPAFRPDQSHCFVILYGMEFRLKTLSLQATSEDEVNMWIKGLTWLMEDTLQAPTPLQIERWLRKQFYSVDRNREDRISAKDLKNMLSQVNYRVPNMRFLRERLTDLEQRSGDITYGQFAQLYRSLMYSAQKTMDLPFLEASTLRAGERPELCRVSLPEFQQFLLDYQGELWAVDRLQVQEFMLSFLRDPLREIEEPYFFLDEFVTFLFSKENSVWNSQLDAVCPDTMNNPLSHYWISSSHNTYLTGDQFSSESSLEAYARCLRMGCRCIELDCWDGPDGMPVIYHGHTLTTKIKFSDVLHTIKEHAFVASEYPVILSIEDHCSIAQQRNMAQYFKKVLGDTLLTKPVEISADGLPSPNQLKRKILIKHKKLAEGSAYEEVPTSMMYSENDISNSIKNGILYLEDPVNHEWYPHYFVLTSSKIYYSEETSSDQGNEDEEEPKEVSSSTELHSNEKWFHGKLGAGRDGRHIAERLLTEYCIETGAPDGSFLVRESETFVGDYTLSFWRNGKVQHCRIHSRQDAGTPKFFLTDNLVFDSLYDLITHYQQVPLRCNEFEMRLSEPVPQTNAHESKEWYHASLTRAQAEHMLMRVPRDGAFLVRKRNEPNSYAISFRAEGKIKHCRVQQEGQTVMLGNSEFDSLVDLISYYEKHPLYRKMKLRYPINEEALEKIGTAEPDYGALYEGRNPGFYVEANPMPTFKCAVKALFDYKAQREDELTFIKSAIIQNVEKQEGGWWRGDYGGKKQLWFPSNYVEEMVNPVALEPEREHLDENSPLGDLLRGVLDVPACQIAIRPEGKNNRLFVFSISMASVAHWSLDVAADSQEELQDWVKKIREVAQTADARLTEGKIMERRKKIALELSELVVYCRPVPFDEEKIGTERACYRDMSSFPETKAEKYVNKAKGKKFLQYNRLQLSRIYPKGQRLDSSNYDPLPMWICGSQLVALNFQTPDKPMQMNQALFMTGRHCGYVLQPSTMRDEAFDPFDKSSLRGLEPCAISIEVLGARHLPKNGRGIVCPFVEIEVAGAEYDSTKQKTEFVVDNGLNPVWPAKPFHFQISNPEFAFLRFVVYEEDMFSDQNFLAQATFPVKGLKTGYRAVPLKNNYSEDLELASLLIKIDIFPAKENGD
The assay is described as follows: ITC; PEAQ-ITC, 5 °C, 20 mM Hepes pH 7.4, 100 mM NaCl, 0.1 mM DTT; 4 µM in the cell and 40 µM in the syringe, 19 injections of 2 µL; single binding site model with 1:1 stoichiometry. The settings on record: both partners purified.

We go through eight molecules from article PMC13522589, “Weak SLP-76/PLC-γ1 interaction fine-tunes T cell receptor signal strength to optimize T cell responsiveness” (Nature Communications, 2026).

Broadly, the Kd is the equilibrium constant for the complex coming apart.

Sequence of LAT 125-178 (Homo sapiens) (O43561 125-178): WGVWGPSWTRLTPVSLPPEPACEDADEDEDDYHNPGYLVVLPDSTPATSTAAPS
Sequence of SLP-76 159-533 (Homo sapiens) (Q13094 159-533): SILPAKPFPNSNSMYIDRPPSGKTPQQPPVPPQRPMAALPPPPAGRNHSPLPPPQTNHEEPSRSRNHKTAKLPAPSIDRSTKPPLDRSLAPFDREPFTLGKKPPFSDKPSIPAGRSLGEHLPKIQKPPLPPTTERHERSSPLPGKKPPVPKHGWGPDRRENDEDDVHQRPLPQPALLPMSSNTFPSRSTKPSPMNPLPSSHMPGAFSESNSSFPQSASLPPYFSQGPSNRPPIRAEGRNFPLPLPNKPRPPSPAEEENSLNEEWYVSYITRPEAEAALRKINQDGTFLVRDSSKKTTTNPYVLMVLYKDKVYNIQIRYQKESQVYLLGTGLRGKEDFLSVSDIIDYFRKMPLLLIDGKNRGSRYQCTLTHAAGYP

On to Gads 1-322 (from UniProt O75791), for which the Kd in assay [1] is 213 nM; in [2], 164 nM; in assay [3] it was 19 nM; in assay [4], 3.6 nM.
Turning to PLC-γ1 1-1219 (from UniProt P19174), the Kd in [1] was 84 nM.
PLC-γ1 550-846 (from UniProt P19174): the dissociation constant (Kd) was 62 nM in assay [5] and 3340 nM in [3].
Regarding PLC-γ1 (from UniProt P19174), in the assay with SLP-76 (Homo sapiens), the dissociation constant (Kd) is 3340 nM.

B1: SLP-76^WT polypeptide (aa 103–258, Y113F, Y173F) (domain or fragment, UniProt Q13094 103-258, looked up)
chain: GGWSSFEEDDFESPNDDQDGEDDGDYESPNEEEEAPVEDDADYEPPPSNDEEALQNSILPAKPFPNSNSMFIDRPPSGKTPQQPPVPPQRPMAALPPPPAGRNHSPLPPPQTNHEEPSRSRNHKTAKLPAPSIDRSTKPPLDRSLAPFDREPFTLG
notes: source: E. coli Rosetta 2(DE3)pLysS, purified (Glutathione Resin, TEV cleavage, HisTrap, SEC); not shown: His6, N-terminal, cleaved; GST, N-terminal, cleaved
Turning to B1, the “PLC-γ1 activity on PIP2-bearing liposomes (IP3): LAT/Gads/SLP-76^WT/PLC-γ1 tetramer against PLC-γ1 with phospho-LAT alone” value in assay [6] was 1.7 fold. In assay [7], this molecule showed a dissociation constant (Kd) of 2320 nM and a dH of -3.8 kcal/mol.
For the molecule B2, the “PIP2 hydrolysis (IP3) by PLC-γ1 on liposomes containing phospho-LAT alone, compared with liposomes incubated with PLC-γ1 alone” value in assay [8] came to 2.1 fold.

B3: SLP-76 PRR (aa 185-200) peptide, wild type (peptide, UniProt Q13094 185-200, looked up)
peptide: QPPVPPQRPMAALPPP
notes: SLP-76 proline-rich region, residues 185-200; The peptides are called 'a set of short peptides'; also called SLP-76^WT; SLP-76 PRR_(185-200)
B3: in the assay with PLC-γ1 (1-1219), the dissociation constant Kd worked out at 2360 nM.

B4: SLP-76 PRR peptide (aa 185–200), wild type (peptide, UniProt Q13094 185-200, looked up)
peptide: QPPVPPQRPMAALPPP
notes: also called SLP-76 185–200 (WT); SLP-76 PRR_(185–200) peptide
With B4, in [7], the dissociation constant Kd was 3990 nM and the dH was -3.3 kcal/mol.
